According to patent publication US20220289857A1 (Kyowa Kirin, published 2022):

What was measured:
[1] = biological target: T1, human Fn14 (full length) on cells (human, UniProt Q9NP84 28-129); assay: flow cytometry on HK2 cells (endogenous human Fn14), purified antibody 1 µg/mL, detected with anti-mouse IgG PE
T1 construct: Transfected 293F cells, or endogenous on HK2, HRMC, A375, HaCaT, primary keratinocytes and dermal fibroblasts; also called hFn14; TNFRSF12A
T1 sequence: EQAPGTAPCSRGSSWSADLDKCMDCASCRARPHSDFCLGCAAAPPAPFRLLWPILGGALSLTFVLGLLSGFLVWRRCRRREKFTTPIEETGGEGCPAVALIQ
Procedure: (§1) Primary antibodies were used at a concentration of 1 μg/mL and binding was detected using anti-mouse IgG PE.
(§2) Specifically, the binding activity of hybridoma culture supernatants or purified antibodies to Fn14-expressing cells was evaluated by flow cytometry (FCM). The cell lines evaluated by FCM were Fn14-transfected human embryonic kidney 293F cells (ThermoFisher, cat# R79007) and two cell lines endogenously expressing Fn14, human kidney-derived HK2 cells (ATCC, cat# CRL-2190) and rat kidney-derived NRK-52E cells (Japanese Collection of Research Bioresources Cell Bank (JCRB), cat# IF050480). For FCM analysis, Fn14-expressing cells were harvested using 0.25% trypsin-EDTA (Nacalai Tesque), washed with PBS, and resuspended in SM (Staining Medium: PBS containing 2% FBS, 1 mM EDTA, 0.05% sodium azide). Cells were then seeded in a 96-well plate at 1 ×10⁵ cells per well. Hybridoma supernatant or purified antibody (1 μg/mL final concentration) was added and the cells were incubated at 4° C. for 60 minutes. Cells were then washed with SM, resuspended in goat F(ab′)2 anti-mouse IgG-PE (Southern Biotech Inc.), diluted 1:500 in SM and incubated at 4° C. for 60 minutes. Cells were washed with SM and finally resuspended in 50 μL of SM. Fluorescence intensity was measured by FCM (BD Biosciences, FACS CantoII) and the data were analyzed using FlowJo software (Tomy Digital Biology Co., Ltd.).

[2] = biological target: T2, rat Fn14, endogenous on NRK-52E cells (rat, UniProt Q9CR75 28-129 (mouse entry)); assay: flow cytometry on NRK-52E cells (endogenous rat Fn14), purified antibody 1 µg/mL, detected with anti-mouse IgG PE
T2 construct: Endogenous protein of rat kidney cells; also called NRK52E-A15/Luc cells
Procedure: as §1, §2

[3] = biological target: T3, mouse Fn14 (full length) on transfected 293F cells (mouse, UniProt Q9CR75 28-129); assay: flow cytometry, hybridoma supernatant on 293F cells transfected with mouse Fn14, detected with anti-mouse IgG PE
T3 sequence: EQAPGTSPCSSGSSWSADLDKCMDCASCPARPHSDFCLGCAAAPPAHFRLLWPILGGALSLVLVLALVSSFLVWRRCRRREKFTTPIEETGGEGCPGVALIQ
Procedure: FIG. 1 depicts binding of anti-Fn14 hybridoma supernatants to human and mouse Fn14 transfected cells. […] Hybridoma supernatant binding was detected using anti-mouse IgG PE.
as §2, with “Cells were washed with SM and finally resuspended in 50 μL of SM.” left out

Measured: binding result

B1: KO42d mouse monoclonal antibody (hybridoma-derived) (antibody, V domains shown)
VH: EVQLLQSGPELVKPVASVKMSCKASGYTFTDYNIHWVKQSHGKSLEWIGYINPNNGVTGYNQKFRGKATLTVNRSSNTAYMDLRSLTSEDSAVYYCTRRYGDYVHAMDCWGQGTSVTVSS
VL: DIQMTQSPSSLSASLGERVSLTCRASQDIGSRLNWLQQEPDGTIKRLIYATSSLDSGVPKRFSGSRSGSDYSLTISSLESEDFVDYYCLQYASSPYTFGGGTKLEIK
notes: Hybridoma supernatant or purified antibody from an Fn14 knockout mouse; native mouse IgG, kappa
binds: all assays above
